The target in series [1] is T1, Native Pyrococcus horikoshii RtcB (Pyrococcus horikoshii) (UniProt O59245).
T1 sequence: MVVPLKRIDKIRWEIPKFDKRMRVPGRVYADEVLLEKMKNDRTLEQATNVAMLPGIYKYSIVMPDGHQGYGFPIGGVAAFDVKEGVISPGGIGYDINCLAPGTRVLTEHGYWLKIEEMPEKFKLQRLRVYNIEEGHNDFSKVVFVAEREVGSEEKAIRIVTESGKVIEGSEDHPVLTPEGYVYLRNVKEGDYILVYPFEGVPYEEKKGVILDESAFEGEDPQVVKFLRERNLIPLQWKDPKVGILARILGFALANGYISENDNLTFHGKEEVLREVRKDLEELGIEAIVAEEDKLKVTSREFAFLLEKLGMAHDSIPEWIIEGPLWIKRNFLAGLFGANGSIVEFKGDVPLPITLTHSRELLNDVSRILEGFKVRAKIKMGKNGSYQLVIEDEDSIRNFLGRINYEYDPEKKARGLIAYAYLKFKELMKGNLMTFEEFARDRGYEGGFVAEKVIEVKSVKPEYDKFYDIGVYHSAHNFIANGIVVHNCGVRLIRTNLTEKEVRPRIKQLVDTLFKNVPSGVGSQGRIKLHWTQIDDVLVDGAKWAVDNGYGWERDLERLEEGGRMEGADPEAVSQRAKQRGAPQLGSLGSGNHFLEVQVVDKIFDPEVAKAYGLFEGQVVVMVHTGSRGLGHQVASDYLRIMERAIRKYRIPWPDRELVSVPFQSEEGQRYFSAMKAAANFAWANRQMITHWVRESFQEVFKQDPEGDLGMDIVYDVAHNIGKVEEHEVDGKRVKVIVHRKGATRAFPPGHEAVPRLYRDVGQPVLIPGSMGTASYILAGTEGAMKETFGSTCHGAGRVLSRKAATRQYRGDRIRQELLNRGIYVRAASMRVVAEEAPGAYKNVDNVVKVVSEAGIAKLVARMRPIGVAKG

Substrate in series [2]: Nc1nc2c(ncn2[C@@H]2O[C@H](COP(=O)(O)OP(=O)(O)OP(=O)(O)O)[C@@H](O)[C@H]2O)c(=O)[nH]1
Description: single-turnover RNA ligation, FAM-RNA gel assay. The format is biochemical, Pyrococcus horikoshii. To be noted: apparent Km, RtcB 5 uM, MnCl2 0.25 mM, NaCl 300 mM, Bis-Tris pH 7.0, 70 °C, 10-nt RNA substrates 1.0 uM each, varied: cofactor.

Substrate in series [3]: Nc1ncnc2c1ncn2[C@@H]1O[C@H](COP(=O)(O)OP(=O)(O)OP(=O)(O)O)[C@@H](O)[C@H]1O
Description: single-turnover RNA ligation, FAM-RNA gel assay. In kind it is biochemical, Pyrococcus horikoshii. The settings on record: apparent Km, Archease 800 nM, RtcB 5 uM, MnCl2 0.25 mM, NaCl 300 mM, Bis-Tris pH 7.0, 70 °C, 10-nt RNA substrates 1.0 uM each, varied: cofactor. The source says:
single-turnover RNA ligation, FAM-RNA gel assay on RtcB·Archease | the ATP KM* value for K480A RtcB was nearly identical to the ATP KM* value

Substrate in series [4]: Nc1ncnc2c1ncn2[C@@H]1O[C@H](COP(=O)(O)OP(=O)(O)OP(=O)(O)O)[C@@H](O)[C@H]1O
Description: single-turnover RNA ligation, FAM-RNA gel assay. In kind it is biochemical, Pyrococcus horikoshii. The settings on record: apparent Km, Archease 800 nM, RtcB 5 uM, MnCl2 0.25 mM, NaCl 300 mM, Bis-Tris pH 7.0, 70 °C, 10-nt RNA substrates 1.0 uM each, varied: cofactor. This is another data set of the same source.

Substrate in series [5]: Nc1nc2c(ncn2[C@H]2C[C@H](O)[C@@H](COP(=O)(O)OP(=O)(O)OP(=O)(O)O)O2)c(=O)[nH]1
In words: single-turnover RNA ligation, FAM-RNA gel assay. In kind it is biochemical, Pyrococcus horikoshii. To be noted: apparent Km, Archease 100 nM, RtcB 5 uM, MnCl2 0.25 mM, NaCl 300 mM, Bis-Tris pH 7.0, 70 °C, 10-nt RNA substrates 1.0 uM each, varied: cofactor.

Substrate in series [6]: O=P(O)(O)OP(=O)(O)OP(=O)(O)OC[C@H]1O[C@@H](n2cnc3c(O)ncnc32)[C@H](O)[C@@H]1O
In words: single-turnover RNA ligation, FAM-RNA gel assay. To be noted: apparent Km, Archease 100 nM, RtcB 5 uM, MnCl2 0.25 mM, NaCl 300 mM, Bis-Tris pH 7.0, 70 °C, 10-nt RNA substrates 1.0 uM each, varied: cofactor. In kind it is biochemical, Pyrococcus horikoshii.

Where a chain is given by its changes, count along the chain named. In names and notes the source's numbering stands.

B1: Pyrococcus horikoshii Archease (natural protein)
chain: MLKKWEHYEHTADIGIRGYGDSLEEAFEAVAIALFDVMVNVNKVEKKEVREIEVEAEDLEALLYSFLEELLVIHDIEGLVFRDFEVKIERVNGKYRLRAKAYGEKLDLKKHEPKEEVKAITYHDMKIERLPNGKWMAQLVPDI
B1 showed an RNA ligation product formed by 5 μM RtcB with Archease titrated in (activation levels off at 100 nM Archease; 92 nM product without Archease), 70°C, 30 min in series [1] of 316 nM.

B2: P. horikoshii RtcB (Pyrococcus horikoshii OT3) (protein)
chain 1: MVVPLKRIDKIRWEIPKFDKRMRVPGRVYADEVLLEKMKNDRTLEQATNVAMLPGIYKYSIVMPDGHQGYGFPIGGVAAFDVKEGVISPGGIGYDIN
chain 2: CGVRLIRTNLTEKEVRPRIKQLVDTLFKNVPSGVGSQGRIKLHWTQIDDVLVDGAKWAVDNGYGWERDLERLEEGGRMEGADPEAVSQRAKQRGAPQLGSLGSGNHFLEVQVVDKIFDPEVAKAYGLFEGQVVVMVHTGSRGLGHQVASDYLRIMERAIRKYRIPWPDRELVSVPFQSEEGQRYFSAMKAAANFAWANRQMITHWVRESFQEVFKQDPEGDLGMDIVYDVAHNIGKVEEHEVDGKRVKVIVHRKGATRAFPPGHEAVPRLYRDVGQPVLIPGSMGTASYILAGTEGAMKETFGSTCHGAGRVLSRKAATRQYRGDRIRQELLNRGIYVRAASMRVVAEEAPGAYKNVDNVVKVVSEAGIAKLVARMRPIGVAKG
notes: intein-free mature ligase
As usually defined, the Km is the concentration of substrate that gives half-maximal velocity. Regarding B2, in series [2], the Km came to 2.4 ± 0.2 µM.

B3: RtcB·Archease (Pyrococcus horikoshii OT3; K870A) (protein)
chain 1: B2 chain 1
chain 2: B2 chain 2 with K383A
notes: Archease untagged as described, codon-optimised, Leu inserted after ATG, E. coli BL21, 16 kDa, mostly monomer; with Protein archease
Turning to B3, the Km in series [3] worked out at 3.0 ± 1.0 µM.

B4: RtcB·Archease (Pyrococcus horikoshii OT3) (protein)
chain 1: B2 chain 1
chain 2: B2 chain 2
notes: as for B3
Regarding B4, the Km was 1.5 ± 0.3 µM in series [2] (Archease 100 nM), 3.4 ± 1.1 µM in series [4], 1.8 ± 0.1 µM in series [5] and 1.9 ± 0.4 µM in series [6].

For the origin of these results see PMC3973293, “A tRNA splicing operon: Archease endows RtcB with dual GTP/ATP cofactor specificity and accelerates RNA ligation” (Nucleic Acids Research, 2014).
